One may read the EC50 (read off the curve) as the midpoint of the concentration-response curve.

Here are results for 10 molecules from patent publication US20260209372A1 (PROMETHEUS BIOSCIENCES, published 2026).

Assay [1] has as its target cynomolgus CD30L on HEK293 cells (cynomolgus). Description: cell-based or functional assay.
The target in assay [2] is T1, recombinant cynomolgus CD30L protein (cynomolgus).
T1 construct: Recombinant protein of the ELISA; also called cyCD30L; cyno CD30L
The experiment in a line: ELISA, cyCD30L, 1/50 dil.

The target of assay [3] is T1, recombinant cynomolgus CD30L protein. The experiment in a line: ELISA, cyCD30L, 1/500 dil. Background: In an ELISA, binding on a coated surface is turned into a signal by an enzyme label.
The target is the same in assay [4]. Description: ELISA, cyCD30L, 1/5000 dil.
For a further assay, the target named is T2, recombinant human CD30L (human, UniProt P32971 63-234).
T2 construct: Recombinant or purified protein of the ELISA, BLI, Carterra and KinExA assays; construct not described; also called rhCD30L; huCD30L
T2 sequence (looked up): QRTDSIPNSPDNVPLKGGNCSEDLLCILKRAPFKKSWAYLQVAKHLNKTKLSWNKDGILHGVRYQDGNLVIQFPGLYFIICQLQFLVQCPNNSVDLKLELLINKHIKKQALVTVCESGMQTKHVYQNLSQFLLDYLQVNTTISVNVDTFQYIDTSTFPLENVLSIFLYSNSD
The experiment in a line: ELISA on rhCD30L, OD 450 nm against Ab (nM).

For assay [5], the target named is T3, human CD30L expressed on B16 cells (human, UniProt P32971 1-234).
T3 construct: whole, on cells; B16 cell line transfected to express human CD30L; also called B16-huCD30L; hCD30L B16
T3 sequence (looked up): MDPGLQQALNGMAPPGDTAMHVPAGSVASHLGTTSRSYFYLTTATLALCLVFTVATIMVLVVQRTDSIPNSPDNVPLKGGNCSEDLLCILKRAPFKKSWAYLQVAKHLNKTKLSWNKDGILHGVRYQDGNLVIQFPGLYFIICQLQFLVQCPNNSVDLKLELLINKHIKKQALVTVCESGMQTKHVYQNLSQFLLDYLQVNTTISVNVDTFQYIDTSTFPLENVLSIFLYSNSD
Description: flow cytometry on B16-huCD30L cells, MFI against Ab (nM).

B1: anti-CD30L Reference 1 antibody (antibody, human IgG1, lambda, V domains shown)
VH: QVQLQESGPGLVKPSETLSLTCTVSGGSISSYIWSWIRQPAGKGLEWIGRIYASGNTNYNPSLKSRVTISVDTSKNQFSLKLSSMTAADTAVYYCARDYRVAGTYYYYYGLDVWGQGTTVTVSS
VL: QSALTQPASVSGSPGQSITISCTGTSSDVGVYDYVSWYQQHPGKAPKLMIYEVSNRPSGVSNRFSGSKSGNTASLTISGLQTEDEADYYCSSYTSRSTWVFGGGTKLTVLG
In the case of B1, the “Inhibition of IL-8 release in a dual cell assay (HEK293-cyCD30L cells + K299 cells) IC50” value (from here on “Inhibition of IL-8 release”) in assay [1] was 0.68 nM.

B2: Clone 2, Mouse IgG (antibody, V domains shown)
VH: EVQLVESGGGLVQPGRSLRLSCAASGFNFDDYAMHWVRQAPGKGLEWVSGISWRSGNIGYAGSVKGRFTISRDNAKNSLYLQMNSLRPEDSALYYCAKDKGIGFNWNYEGFDYWGQGTLVTVSS
VL: DIQMTQSPSSLSASVGDRVTITCRASQGISNHLAWFQQKPGKAPKSLIYAASSLQSGVPSKFSGSGSGTDFTLTISSLQPEDFATYYCQQYVTYPLTFGGGTKVEIK
On to B2, for which the “Inhibition of IL-8 release” value in assay [1] worked out at 0.46 nM.

B3: Clone 2 (antibody, V domains shown)
VH: EVQLVESGGGLVQPGRSLRLSCAASGFNFDDYAMHWVRQAPGKGLEWVSGISWRSGNIGYAGSVKGRFTISRDNAKNSLYLQMNSLRPEDSALYYCAKDKGIGFNWNYEGFDYWGQGTLVTVSS
VL: DIQMTQSPSSLSASVGDRVTITCRASQGISNHLAWFQQKPGKAPKSLIYAASSLQSGVPSKFSGSGSGTDFTLTISSLQPEDFATYYCQQYVTYPLTFGGGTKVEIK
notes: also called anti-CD30L antibody clone 2 (parental)
With B3, the figures for the “Elisa Binding (OD)” value in assay [2], in assay [3] and in assay [4] were 3.76 OD, 3.18 OD and 1.23 OD, respectively.

B4: Clone 2, Human IgG1 (antibody, V domains shown)
VH: EVQLVESGGGLVQPGRSLRLSCAASGFNFDDYAMHWVRQAPGKGLEWVSGISWRSGNIGYAGSVKGRFTISRDNAKNSLYLQMNSLRPEDSALYYCAKDKGIGFNWNYEGFDYWGQGTLVTVSS
VL: DIQMTQSPSSLSASVGDRVTITCRASQGISNHLAWFQQKPGKAPKSLIYAASSLQSGVPSKFSGSGSGTDFTLTISSLQPEDFATYYCQQYVTYPLTFGGGTKVEIK
On to B4, for which the “Inhibition of IL-8 release” value in assay [1] was 0.24 nM.

B5: anti-CD30L antibody clone 80 (antibody, V domains shown)
VH: EVQLVESGGGLVQPGGSLRLSCEVSGFTFSSYDMHWVRQVTGTGLEWVSSIGIGGDTYYPGSVKGRFTISRENAKNSLYLQMNSLRGGDTGVYYCARGEWDLLWYFMDVWGKGTTVTVSS
VL: DIQMTQSPSSLSASIGDRVTITCRASQGISSWLAWYQQKPGKAPKLLIYAASSLQSGVPSRFSGSGSGTDFTLTISSLQPEDFATYYCQQANSFPLTFGGGTKVEIK
notes: purified recombinant IgG, mouse strain #1
On to B5, for which the “EC50 (read off the curve)” value with recombinant human CD30L is around 0.1 nM; in assay [5], around 2 nM.

B6: Clone 4 (antibody, V domains shown)
VH: QVQLVESGGGVVQPGRSLRLSCAASGFPFSSYGMHWVRQAPGKGLEWVTFIWFDGNNKDYADSVKGRFSVSRDNSKNTLYLQMNSLRADDTAVYYCARNGVYYGSGAYVDYWGQGTLVTVSS
VL: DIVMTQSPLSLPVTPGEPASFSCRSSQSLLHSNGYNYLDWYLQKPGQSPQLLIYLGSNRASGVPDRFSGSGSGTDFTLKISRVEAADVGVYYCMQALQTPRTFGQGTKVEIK
notes: hybridoma clone
Regarding B6, the “Elisa Binding (OD)” value was 2.58 OD in assay [2], 2.38 OD in assay [3] and 0.583 OD in assay [4].

B7: Clone 1, Mouse IgG (antibody, V domains shown)
VH: QVQLQESGPGLVKPSETLSLTCTVSGGSISGYYWSWIRQPPVKGLEWIGYIFYSGYTKYNPSLKSRVTISVDTSKNQFSLKLSSVTAADTAVYYCARDRWDFDYWGQGALVTVSS
VL: AIQMTQSPSYLSASVGDRVTIACRASQGIRNNLGWYQQKPGKAPKLLIYAESSLQSGVPSRFSGSGSGTDFTLTISSLQPEDFATYYCLQDFNYPYTFGQGTKLEIK
For the molecule B7, in assay [1], the “Inhibition of IL-8 release” value was determined as 0.55 nM.

B8: Clone 3 (antibody, V domains shown)
VH: QVQLQESGPGLVKPSETLSLTCTVSGGSISGYYWSWIRQPPVKGLEWIGYIFYSGYTKYNPSLKSRVTISVDTSKNQFSLKLSSVTAADTAVYYCARDRWDFDYWGQGALVTVSS
VL: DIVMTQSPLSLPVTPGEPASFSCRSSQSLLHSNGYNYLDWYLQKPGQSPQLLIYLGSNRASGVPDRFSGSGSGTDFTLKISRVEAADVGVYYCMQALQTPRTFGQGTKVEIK
notes: hybridoma clone
Consider B8, for which the “Elisa Binding (OD)” value in assay [2] was found to be 3.2 OD; in assay [3] it was 2.35 OD; in assay [4] it was 0.552 OD.

B9: Clone 1 (antibody, V domains shown)
VH: QVQLQESGPGLVKPSETLSLTCTVSGGSISGYYWSWIRQPPVKGLEWIGYIFYSGYTKYNPSLKSRVTISVDTSKNQFSLKLSSVTAADTAVYYCARDRWDFDYWGQGALVTVSS
VL: AIQMTQSPSYLSASVGDRVTIACRASQGIRNNLGWYQQKPGKAPKLLIYAESSLQSGVPSRFSGSGSGTDFTLTISSLQPEDFATYYCLQDFNYPYTFGQGTKLEIK
notes: also called anti-CD30L antibody clone 1 (parental)
As to B9, the “Elisa Binding (OD)” value in assay [2] is 2.83 OD; in assay [3] it was 2.87 OD; in assay [4], 1.16 OD.

B10: Clone 1, Human IgG1 (antibody, V domains shown)
VH: QVQLQESGPGLVKPSETLSLTCTVSGGSISGYYWSWIRQPPVKGLEWIGYIFYSGYTKYNPSLKSRVTISVDTSKNQFSLKLSSVTAADTAVYYCARDRWDFDYWGQGALVTVSS
VL: AIQMTQSPSYLSASVGDRVTIACRASQGIRNNLGWYQQKPGKAPKLLIYAESSLQSGVPSRFSGSGSGTDFTLTISSLQPEDFATYYCLQDFNYPYTFGQGTKLEIK
As for B10, the “Inhibition of IL-8 release” value in assay [1] turned out to be 0.22 nM.
